According to PMC10695385:

Biological target: SYD-2/Liprin-α N-terminal fragment (coiled-coils and IDR) (UniProt Q21049)
Assay: GFP-trap pull-down, Coomassie gel
Conditions: reference: SAD-1-phosphorylated wild-type SAM; sites S896,S901,S904

- binding against the reference: stronger
Substance: SYD-2/Liprin-α SAM domains, 844-1139 (from UniProt Q21049) SAD-1-phosphorylated SAM(3A)
